# Experimental data reported in patent US20230183713A1, “SITE-SPECIFIC RECOMBINASES FOR EFFICIENT AND SPECIFIC GENOME EDITING” (TECHNISCHE UNIVERSITÄt DRESDEN, published 2023).
# Residue numbers refer to the chain shown, from its start. In names and notes the source's numbering stands.
# T1: Cre recombinase monomer with Q311R mutation
# T1 chain: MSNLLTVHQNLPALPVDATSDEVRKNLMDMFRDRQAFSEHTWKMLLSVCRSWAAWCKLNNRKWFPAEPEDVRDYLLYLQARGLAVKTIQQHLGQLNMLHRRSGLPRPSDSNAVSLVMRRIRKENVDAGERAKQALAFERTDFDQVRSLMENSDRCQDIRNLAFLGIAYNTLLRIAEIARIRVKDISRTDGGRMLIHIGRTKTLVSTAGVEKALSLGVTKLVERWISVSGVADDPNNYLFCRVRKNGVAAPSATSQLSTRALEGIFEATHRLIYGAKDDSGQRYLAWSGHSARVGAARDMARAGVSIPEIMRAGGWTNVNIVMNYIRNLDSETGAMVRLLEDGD
# T2: Cre recombinase monomer with K201R mutation
# T2 chain: T1 chain with K201R, R311Q
# T3: Cre recombinase monomer with E176H mutation
# T3 chain: T1 chain with E176H, R311Q
# T4: Cre recombinase monomer with Y324T mutation
# T4 chain: T1 chain with R311Q, Y324T
# T5: Cre recombinase monomer with Y324M mutation
# T5 chain: T1 chain with R311Q, Y324M
# T6: Cre recombinase monomer with Y324V mutation
# T6 chain: T1 chain with R311Q, Y324V
# T7: Cre recombinase monomer with W315M mutation
# T7 chain: T1 chain with R311Q, W315M
# T8: Cre recombinase monomer with E176V mutation
# T8 chain: T1 chain with E176V, R311Q
# T9: Cre recombinase monomer with W315I mutation
# T9 chain: T1 chain with R311Q, W315I
# T10: Cre recombinase monomer with Y324F mutation
# T10 chain: T1 chain with R311Q, Y324F
# B1: Cre recombinase monomer with E176Y mutation (protein)
# chain: T1 chain with E176Y, R311Q
# B2: Cre recombinase monomer with R173E mutation (protein)
# chain: T1 chain with R173E, R311Q
# B3: Cre recombinase monomer with K201M mutation (protein)
# chain: T1 chain with K201M, R311Q
# B4: Cre recombinase monomer with R173P mutation (protein)
# chain: T1 chain with R173P, R311Q
# B5: Cre recombinase monomer with W315G mutation (protein)
# chain: T1 chain with R311Q, W315G
# B6: Cre recombinase monomer with H289K mutation (protein)
# chain: T1 chain with H289K, R311Q
# B7: Cre recombinase monomer with R173D mutation (protein)
# chain: T1 chain with R173D, R311Q
# B8: Cre recombinase monomer with R173V mutation (protein)
# chain: T1 chain with R173V, R311Q
# B9: Cre recombinase monomer with R173Y mutation (protein)
# chain: T1 chain with R173Y, R311Q
# B10: Cre recombinase monomer with E176M mutation (protein)
# chain: T1 chain with E176M, R311Q
# B11: Cre recombinase monomer with K201W mutation (protein)
# chain: T1 chain with K201W, R311Q
# B12: Cre recombinase monomer with R292Y mutation (protein)
# chain: T1 chain with R292Y, R311Q
# B13: Cre recombinase monomer with R292M mutation (protein)
# chain: T1 chain with R292M, R311Q
# B14: Cre recombinase monomer with W315Q mutation (protein)
# chain: T1 chain with R311Q, W315Q
# B15: Cre recombinase monomer with K201Y mutation (protein)
# chain: T1 chain with K201Y, R311Q
# B16: Cre recombinase monomer with K201L mutation (protein)
# chain: T1 chain with K201L, R311Q
# B17: Cre recombinase monomer with K201V mutation (protein)
# chain: T1 chain with K201V, R311Q
# B18: Cre recombinase monomer with K201A mutation (protein)
# chain: T1 chain with K201A, R311Q
# How the values were obtained:
# [1] = molecular target: T1, Cre recombinase monomer with Q311R …
# [2] = molecular target: T2, Cre recombinase monomer with K201R …
# [3] = molecular target: T3, Cre recombinase monomer with E176H …
# [4] = molecular target: T4, Cre recombinase monomer with Y324T …
# [5] = molecular target: T5, Cre recombinase monomer with Y324M …
# [6] = molecular target: T6, Cre recombinase monomer with Y324V …
# [7] = molecular target: T7, Cre recombinase monomer with W315M …
# [8] = molecular target: T8, Cre recombinase monomer with E176V …
# [9] = molecular target: T9, Cre recombinase monomer with W315I …
# [10] = molecular target: T10, Cre recombinase monomer with Y324F …
protein,measurement,setting,value
B1,Median dimer activity (recombination on loxP),[1],79%
same,Median dimer activity (recombination on loxP),[2],39%
B2,Median dimer activity (recombination on loxP),[3],32%
same,Median dimer activity (recombination on loxP),[1],80%
B3,Median dimer activity (recombination on loxP),[1],93%
same,Median dimer activity (recombination on loxP),[2],76%
B4,Median dimer activity (recombination on loxP),[4],47%
same,Median dimer activity (recombination on loxP),[1],94%
B5,Median dimer activity (recombination on loxP),[5],35%
same,Median dimer activity (recombination on loxP),[6],37%
B6,Median dimer activity (recombination on loxP),[1],95%
same,Median dimer activity (recombination on loxP),[7],74%
B7,Median dimer activity (recombination on loxP),[3],29%
same,Median dimer activity (recombination on loxP),[1],89%
same,Median dimer activity (recombination on loxP),[8],53%
B8,Median dimer activity (recombination on loxP),[1],92%
same,Median dimer activity (recombination on loxP),[8],53%
B9,Median dimer activity (recombination on loxP),[1],92%
same,Median dimer activity (recombination on loxP),[8],35%
B10,Median dimer activity (recombination on loxP),[1],82%
same,Median dimer activity (recombination on loxP),[2],35%
B11,Median dimer activity (recombination on loxP),[4],68%
same,Median dimer activity (recombination on loxP),[1],95%
same,Median dimer activity (recombination on loxP),[7],49%
B12,Median dimer activity (recombination on loxP),[1],96%
same,Median dimer activity (recombination on loxP),[5],90%
B13,Median dimer activity (recombination on loxP),[1],96%
same,Median dimer activity (recombination on loxP),[9],42%
B14,Median dimer activity (recombination on loxP),[6],97%
B15,Median dimer activity (recombination on loxP),[1],90%
same,Median dimer activity (recombination on loxP),[6],26%
B16,Median dimer activity (recombination on loxP),[4],25%
same,Median dimer activity (recombination on loxP),[1],92%
B17,Median dimer activity (recombination on loxP),[1],84%
same,Median dimer activity (recombination on loxP),[10],48%
same,Median dimer activity (recombination on loxP),[7],64%
B18,Median dimer activity (recombination on loxP),[1],95%
same,Median dimer activity (recombination on loxP),[2],64%
